Legend:
[1] = biological target: T1, human full length PRLR (accession #NP_000940.1) expressed on HCT15/PRLR cells (human, UniProt P16471 25-622); experiment: cell-based or functional assay
T1 sequence (looked up): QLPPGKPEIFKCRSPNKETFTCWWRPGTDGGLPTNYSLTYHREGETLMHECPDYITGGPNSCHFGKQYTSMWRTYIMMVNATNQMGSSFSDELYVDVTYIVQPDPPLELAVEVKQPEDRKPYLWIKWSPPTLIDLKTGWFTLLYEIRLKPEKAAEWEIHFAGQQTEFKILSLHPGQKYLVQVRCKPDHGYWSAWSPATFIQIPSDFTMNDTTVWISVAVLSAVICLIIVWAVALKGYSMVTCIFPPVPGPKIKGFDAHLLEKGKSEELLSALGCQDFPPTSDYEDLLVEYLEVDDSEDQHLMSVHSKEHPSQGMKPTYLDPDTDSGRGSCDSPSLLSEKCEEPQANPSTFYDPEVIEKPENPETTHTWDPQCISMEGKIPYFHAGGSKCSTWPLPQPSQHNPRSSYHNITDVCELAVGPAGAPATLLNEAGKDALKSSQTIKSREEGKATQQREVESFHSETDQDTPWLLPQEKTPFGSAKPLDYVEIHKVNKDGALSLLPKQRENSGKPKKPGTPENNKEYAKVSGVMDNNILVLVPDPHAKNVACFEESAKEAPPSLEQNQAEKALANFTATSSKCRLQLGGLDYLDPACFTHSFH

[2] = biological target: T2, STEAP2 endogenously expressed on C4-2 cells (human, UniProt Q8NFT2 1-490); experiment: cell-based or functional assay
T2 sequence (looked up): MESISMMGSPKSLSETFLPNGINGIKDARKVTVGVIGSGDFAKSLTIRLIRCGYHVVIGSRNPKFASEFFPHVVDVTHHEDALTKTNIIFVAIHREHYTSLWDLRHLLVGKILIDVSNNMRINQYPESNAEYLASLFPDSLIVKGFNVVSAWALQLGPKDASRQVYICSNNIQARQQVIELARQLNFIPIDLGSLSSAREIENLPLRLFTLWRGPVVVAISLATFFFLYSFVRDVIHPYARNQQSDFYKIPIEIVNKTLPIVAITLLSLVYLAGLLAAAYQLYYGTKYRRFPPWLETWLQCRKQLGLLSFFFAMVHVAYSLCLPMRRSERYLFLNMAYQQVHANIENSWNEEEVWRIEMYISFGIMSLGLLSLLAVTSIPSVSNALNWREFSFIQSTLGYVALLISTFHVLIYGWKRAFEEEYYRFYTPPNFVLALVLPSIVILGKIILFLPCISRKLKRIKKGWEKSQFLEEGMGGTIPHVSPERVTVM

[3] = system: STEAP2 positive C4-2 prostate cancer xenografts; experiment: In vivo efficacy of anti-STEAP2 ADCs in C4-2 prostate cancer xenografts in SCID mice; design: species or system mouse; settings: single dose 2.5 mg/kg via tail vein; end of study
Protocol: To determine the in vivo efficacy of anti-STEAP2 antibodies conjugated to tubulysins, studies were performed in immunocompromised mice bearing STEAP2 positive C4-2 prostate cancer xenografts.
For the assay, 7.5×10^6 C4-2 cells (ATCC, Cat #CRL-3314), which endogenously express STEAP2, were suspended in Matrigel (BD Biosciences, Cat #354234) and implanted subcutaneously into the left flank of male CB17 SCID mice (Taconic, Hudson NY). Once tumors had reached an average volume of 220 mm^3 (around Day 15), mice were randomized into groups of 7 and given a single dose of either anti-STEAP2 conjugated antibodies (anti-STEAP2-LP3, anti-STEAP2-LP4, anti-STEAP2-MMAE), isotype control conjugated antibody, or vehicle at 2.5 mg/kg via tail vein injection. Tumors were measured with calipers twice a week until the average size of the vehicle group reached 1500 mm^3. Tumor size was calculated using the formula (length×width^2)/2 and the average tumor size+/−SEM was then calculated. Tumor growth inhibition was calculated according to the following formula: (1−((Tfinal−Tinitial)/(Cfinal−Cinitial)))*100, where treated group (T) and control group (C) represent the mean tumor mass on the day the vehicle group reached 1500 mm^3.

[4] = system: CTG-2440 prostate cancer PDX; experiment: Efficacy of STEAP2-Tubulysin ADC in CTG-2440 PDX prostate cancer model in NOG mice; type: in vivo, mouse
Protocol: (§1) Prostate cancer Patient-Derived Xenograft (PDX) tumor fragments of either CTG-2440 or CTG-2441 were implanted subcutaneously into the flank of male NOG mice. Once the tumor volumes reached approximately 200 mm^3, mice were randomized into groups of eight and were treated according to the schedule shown in Table 16 below. Tumor growth was monitored for 60 days post-implantation.
(§2) The prostate cancer models were derived from the bone metastases of patients with metastatic castrate resistant prostate cancer (mCRPC). STEAP2 expression was confirmed by RNA sequencing data and RNA in situ hybridization.

[5] = system: CTG-2441 prostate cancer PDX; experiment: Efficacy of STEAP2-Tubulysin ADC in CTG-2441 PDX prostate cancer model in NOG mice; type: in vivo, mouse
Protocol: as §1, §2

[6] = 1.86 mg/kg QW × 1, total payload dose 40 ug/kg
[7] = 1.86 mg/kg QW × 3, total payload dose 120 ug/kg
[8] = 3.72 mg/kg QW × 3, total payload dose 240 ug/kg
[9] = 1.82 mg/kg QW × 1, total payload dose 40 ug/kg
[10] = 1.82 mg/kg QW × 3, total payload dose 120 ug/kg
[11] = 3.64 mg/kg QW × 3, total payload dose 240 ug/kg

B1: Anti-PRLR N297Q Ab-LP3 (antibody, V domains shown)
VH: QVQLVESGGGVVQPGRSLRLSCGASGFTFRNYGMQWVRQGPGKGLEWVTLISFDGNDKYYADSVKGRFTISRDNSKNTLFLQMNSLRTEDTAVYYCARGGDFDYWGQGTLVTVSS
VL: DIQMTQSPSSLSASVGDRVTITCRASQDIRKDLGWYQQKPGKAPKRLIYAASSLHSGVPSRFSGSGSGTEFTLTISSLQPEDFATYYCLQHNSYPMYTFGQGTKLEIK
modifications: N297Q (EU numbering) in the heavy chain constant region; linker-payload LP3 (payload IVd) clicked to azido-PEG3-amine that transglutaminase put on heavy chain glutamines; DAR 3.9 (Table 7)
Q: Which results are given for B1?
A: IC50 (nM) on HCT15/PRLR w/ Verapamil (CellTiter-Glo cytotoxicity) [1]: 0.309 nM; IC50 (nM) on HCT15/PRLR w/o Verapamil (CellTiter-Glo cytotoxicity) [1]: 0.525 nM

B2: Anti-PRLR N297Q Ab-LP4 (antibody, V domains shown)
VH: QVQLVESGGGVVQPGRSLRLSCGASGFTFRNYGMQWVRQGPGKGLEWVTLISFDGNDKYYADSVKGRFTISRDNSKNTLFLQMNSLRTEDTAVYYCARGGDFDYWGQGTLVTVSS
VL: DIQMTQSPSSLSASVGDRVTITCRASQDIRKDLGWYQQKPGKAPKRLIYAASSLHSGVPSRFSGSGSGTEFTLTISSLQPEDFATYYCLQHNSYPMYTFGQGTKLEIK
modifications: N297Q (EU numbering) in the heavy chain constant region; linker-payload LP4 (payload Ve) clicked to azido-PEG3-amine that transglutaminase put on heavy chain glutamines; DAR 3.9 (Table 7)
Q: Which “IC50 (nM) on HCT15/PRLR w/ Verapamil (CellTiter-Glo cytotoxicity)” value [1] does the source give for B2 here?
A: The value was 0.196 nM.

Q: And the “IC50 (nM) on HCT15/PRLR w/o Verapamil (CellTiter-Glo cytotoxicity)” value [1]?
A: Its value is 3.31 nM.

B3: Anti-STEAP2-MMAE (antibody, V domains shown)
VH: QVQLVESGGGVVQPGRSLRLSCVASGFTISSYGMNWVRQAPGKGLEWVAVISYDGGNKYSVDSVKGRFTISRDNSKNTLYLQMNSLRAEDSAVYYCARGRYFDLWGRGTLVTVSS
VL: DIQMTQSPSTLSASVGDRVTITCRASQSISSWLAWYQQKPGRAPNLLISKASSLKSGVPSRFSGSGSGTEFTLTVSSLQPDDFATYYCQQYYSYSYTFGQGTKLEIK
modifications: conjugated to MMAE (payload of LP8, reference linker-payload); site of conjugation and DAR not stated
Q: With B3 as the molecule, how does the “% kill, C4-2 cells” value [2] read?
A: The value was 99%.

Q: What about the “IC50 (nM), cytotoxicity in C4-2 cells (CellTiter-Glo)” value [2] of the same molecule?
A: Its value is 0.53 nM.

Q: And the “Average Final Tumor size mm^3 (mean ± SEM)” value [3]?
A: The value was 475 ± 118 mm^3.

Q: What about the “Average Tumor Growth Inhibition (%)” value [3] of the same molecule?
A: The value was 81%.

B4: Anti-STEAP2-LP4 (conjugate)
VH: QVQLVESGGGVVQPGRSLRLSCVASGFTISSYGMNWVRQAPGKGLEWVAVISYDGGNKYSVDSVKGRFTISRDNSKNTLYLQMNSLRAEDSAVYYCARGRYFDLWGRGTLVTVSS
VL: DIQMTQSPSTLSASVGDRVTITCRASQSISSWLAWYQQKPGRAPNLLISKASSLKSGVPSRFSGSGSGTEFTLTVSSLQPDDFATYYCQQYYSYSYTFGQGTKLEIK
Q: What does the source list for B4?
A: Final tumor volume (mm^3) at termination (mean ± SD) [4, 6]: 179.9 ± 68.5 mm^3; Tumor growth (mm^3) from start of treatment (mean ± SD) [4, 6]: −20.0 ± 65.1 mm^3; Final tumor volume (mm^3) at termination (mean ± SD) [4, 7]: 73.5 ± 53.4 mm^3; Tumor growth (mm^3) from start of treatment (mean ± SD) [4, 7]: −129.3 ± 67.7 mm^3; Final tumor volume (mm^3) at termination (mean ± SD) [4, 8]: 6.0 ± 11.4 mm^3; Tumor growth (mm^3) from start of treatment (mean ± SD) [4, 8]: −196.5 ± 37.1 mm^3; Average Final Tumor size mm^3 (mean ± SEM) [3]: 258 ± 60 mm^3; Average Tumor Growth Inhibition (%) [3]: 97%; Final tumor volume (mm^3) at termination (mean ± SD) [5, 9]: 171.8 ± 176.1 mm^3; Tumor growth (mm^3) from start of treatment (mean ± SD) [5, 9]: −36.8 ± 167.0 mm^3; Final tumor volume (mm^3) at termination (mean ± SD) [5, 10]: 46.0 ± 15.1 mm^3; Tumor growth (mm^3) from start of treatment (mean ± SD) [5, 10]: −164.0 ± 57.3 mm^3; Final tumor volume (mm^3) at termination (mean ± SD) [5, 11]: 33.5 ± 13.6 mm^3; Tumor growth (mm^3) from start of treatment (mean ± SD) [5, 11]: −179.1 ± 51.3 mm^3

Reference: patent US12144864B2, “Tubulysins and protein-tubulysin conjugates” (Regeneron Pharmaceuticals, Inc., priority 2018, dated 2024)
